Results: US20220218659

Molecular target: Human ACLY, His-tagged, bacterially expressed and purified recombinant full length protein (UniProt P53396)
Sequence of UniProt P53396 (P53396 whole entry): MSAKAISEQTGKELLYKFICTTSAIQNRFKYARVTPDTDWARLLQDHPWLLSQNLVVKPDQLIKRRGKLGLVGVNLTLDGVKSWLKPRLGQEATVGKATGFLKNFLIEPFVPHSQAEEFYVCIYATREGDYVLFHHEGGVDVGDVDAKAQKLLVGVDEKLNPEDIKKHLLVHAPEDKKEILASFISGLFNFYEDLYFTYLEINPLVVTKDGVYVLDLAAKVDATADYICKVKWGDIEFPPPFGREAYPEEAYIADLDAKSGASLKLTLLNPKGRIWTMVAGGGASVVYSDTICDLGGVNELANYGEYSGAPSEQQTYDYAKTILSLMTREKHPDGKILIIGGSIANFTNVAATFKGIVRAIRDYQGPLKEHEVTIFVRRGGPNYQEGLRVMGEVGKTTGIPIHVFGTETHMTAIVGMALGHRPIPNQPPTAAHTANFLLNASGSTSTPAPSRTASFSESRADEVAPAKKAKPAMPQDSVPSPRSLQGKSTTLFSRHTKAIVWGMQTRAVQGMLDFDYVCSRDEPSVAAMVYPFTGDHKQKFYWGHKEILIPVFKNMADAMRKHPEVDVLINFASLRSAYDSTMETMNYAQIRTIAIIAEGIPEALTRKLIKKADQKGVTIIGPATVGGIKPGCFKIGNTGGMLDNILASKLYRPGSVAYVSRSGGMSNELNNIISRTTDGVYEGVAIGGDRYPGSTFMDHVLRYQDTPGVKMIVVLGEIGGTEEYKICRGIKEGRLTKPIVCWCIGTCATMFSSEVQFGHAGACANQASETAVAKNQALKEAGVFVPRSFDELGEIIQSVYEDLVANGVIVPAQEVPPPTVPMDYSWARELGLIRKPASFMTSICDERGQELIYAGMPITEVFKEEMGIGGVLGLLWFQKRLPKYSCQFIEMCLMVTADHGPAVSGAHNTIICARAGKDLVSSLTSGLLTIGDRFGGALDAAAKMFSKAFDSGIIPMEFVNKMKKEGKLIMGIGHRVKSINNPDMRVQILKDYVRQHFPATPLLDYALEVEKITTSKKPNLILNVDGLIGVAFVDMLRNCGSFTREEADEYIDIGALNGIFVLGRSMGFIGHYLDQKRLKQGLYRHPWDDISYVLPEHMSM

Question: Which “ACLY tyrosine residues phosphorylated (phosphoproteomics)” value does the source give for Active recombinant Src kinase here?
Answer: The three ACLY tyrosine residues, Y682, Y252, Y227, were common for Lyn and Src
